# According to article PMC8582233:
# Biological target: Recombinant SARS-CoV-2 S trimer (SARS-CoV-2) (UniProt P0DTC2)
# Experiment: MST
row,Substance,Kd [nM]
1,Recombinant DC-SIGN/CD209 (from UniProt Q9NNX6 1-404) (receptor),28.8
2,Recombinant L-SIGN/CD299 (from UniProt Q9H2X3 1-399) (receptor),43.7
